Data set [1] concerns the target T1, wtPSP (human phosphoserine phosphatase, PSP) (Homo sapiens, UniProt P78330, R27S).
T1 construct: gene PSPH; recombinant human PSP with His-tag, plasmid pET28_hPSP, E. coli BL21(DE3), Talon purification, homodimer (54 kDa expected; 53 kDa by SEC)
T1 sequence (P78330 1-225 R27S): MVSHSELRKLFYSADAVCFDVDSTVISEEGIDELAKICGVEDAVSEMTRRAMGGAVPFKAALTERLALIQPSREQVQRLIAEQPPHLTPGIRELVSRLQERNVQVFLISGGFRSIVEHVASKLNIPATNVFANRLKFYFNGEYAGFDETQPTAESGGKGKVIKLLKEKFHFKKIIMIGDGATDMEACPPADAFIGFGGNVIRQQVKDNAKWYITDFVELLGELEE
Nature of the data set: PNP-coupled phosphate release assay. Type of data set: biochemical. An excerpt:
(§1) PNP-coupled phosphate release assay on wtPSP (human phosphoserine phosphatase, PSP)

Data set [2] has as its target T2, wtPSP (human phosphoserine phosphatase, PSP) (Homo sapiens, UniProt P78330, D32G).
T2 construct: gene PSPH; recombinant human PSP with His-tag, plasmid pET28_hPSP, E. coli BL21(DE3), Talon purification, homodimer (54 kDa expected; 53 kDa by SEC)
T2 sequence (P78330 1-225 D32G): T1 sequence (P78330 1-225 R27S) with S27R, D32G
Nature of the data set: PNP-coupled phosphate release assay. It counts as biochemical.
Text: as §1

Data set [3] deals with T3, wtPSP (human phosphoserine phosphatase, PSP) (Homo sapiens, UniProt P78330).
T3 construct: gene PSPH; recombinant human PSP with His-tag, plasmid pET28_hPSP, E. coli BL21(DE3), Talon purification, homodimer (54 kDa expected; 53 kDa by SEC)
T3 sequence (P78330 1-225): T1 sequence (P78330 1-225 R27S) with S27R
Nature of the data set: PNP-coupled phosphate release assay. It counts as biochemical.
Text: as §1

In data set [4] the target is T4, wtPSP (human phosphoserine phosphatase, PSP) (Homo sapiens, UniProt P78330, D32G/R27S).
T4 construct: gene PSPH; recombinant human PSP with His-tag, plasmid pET28_hPSP, E. coli BL21(DE3), Talon purification, homodimer (54 kDa expected; 53 kDa by SEC)
T4 sequence (P78330 1-225 R27S/D32G): T1 sequence (P78330 1-225 R27S) with D32G
Nature of the data set: PNP-coupled phosphate release assay. It counts as biochemical.
Text: as §1

Data set [5] concerns the target T3, wtPSP (human phosphoserine phosphatase, PSP). Nature of the data set: SAT-coupled continuous assay of L-Ser production (DTNB, […] nm type read-out). Type of data set: biochemical. Conditions: 3 mM MgCl2, 50 mM Hepes, 100 mM KCl, pH 7, 37 °C; 12 nM enzyme.
Substrate in data set [6]: N[C@@H](COP(=O)(O)O)C(=O)O
Nature of the data set: SAT-coupled continuous assay of L-Ser production. Type of data set: biochemical, Homo sapiens. The settings on record: 3 mM MgCl2, 50 mM Hepes, 100 mM KCl, pH 7, 37 °C. From the text:
SAT-coupled continuous assay of L-Ser production on wtPSP (human phosphoserine phosphatase, PSP)

Residue numbers refer to the chain shown, from its start. Names and notes keep the numbering of the source.

On to `N[C@@H](CO)C(=O)O` [L-Ser], for which the IC50 was 171 ± 15 µM in data set [1], 746 ± 26 µM in data set [2], 273 ± 31 µM in data set [3] and 523 ± 74 µM in data set [4].
On to `N[C@@H](COP(=O)(O)O)C(=O)O` [3-PS], for which the Km in data set [5] is 42 ± 12 µM.

B1: wtPSP (human phosphoserine phosphatase, PSP) (Homo sapiens; R27S) (protein)
chain: T1 sequence (P78330 1-225 R27S)
notes: recombinant human PSP with His-tag, plasmid pET28_hPSP, E. coli BL21(DE3), Talon purification, homodimer (54 kDa expected; 53 kDa by SEC)
In the case of B1, in data set [6] (12 nM enzyme), the Michaelis constant (Km) was 50 ± 3 µM, the kcat amounted to 39 ± 1 s⁻¹ and the kcat/Km came out at 780000 M⁻¹ s⁻¹.

B2: wtPSP (human phosphoserine phosphatase, PSP) (Homo sapiens; D32G) (protein)
chain: T1 sequence (P78330 1-225 R27S) with S27R, D32G
notes: as for B1
In the case of B2, in data set [6] (180 nM enzyme), the Michaelis constant (Km) amounted to 53 ± 5 µM, the kcat was 2.3 ± 0.1 s⁻¹ and the kcat/Km came to 43400 M⁻¹ s⁻¹.

B3: wtPSP (human phosphoserine phosphatase, PSP) (Homo sapiens; D32G/R27S) (protein)
chain: T1 sequence (P78330 1-225 R27S) with D32G
notes: as for B1
For the molecule B3, in data set [6] (180 nM enzyme), the Km was 75 ± 12 µM, the kcat came out at 2.2 ± 0.1 s⁻¹ and the specificity constant (kcat/Km) turned out to be 29300 M⁻¹ s⁻¹.

Source of the values: publication PMC12443467, “A phosphoserine phosphatase variant present in the brain of Alzheimer's disease patients favors nuclear mistargeting” (The Febs Journal, 2025).
